From patent US20240082342A1, “PEPTIDE THERAPEUTICS FOR INCREASING LUNG CELL VIABILITY” (BOARD OF REGENTS, THE UNIVERSITY OF TEXAS SYSTEM, priority 2018, published 2024)

Legend:
LECs = details: in vitro and in vivo; cited from earlier work
[1] = system: A2ECs treated with IL-17A; assay: A2ECs exposed to IL-17A in vitro; assay type: cell-based, mouse
Procedure: FIGS. 49A-49B show the role of IL-17A in PTS-induced p53, PAI-1 expression, and apoptosis in A2ECs. (A) IL-17A^−/− mice resist PTS-induced p53 expression and apoptosis in A2ECs. Mice were kept in ambient AIR or exposed to 20 weeks of PTS. A2ECs isolated from WT and IL-17A^−/− mice in AIR or exposed to PTS were analyzed for acetylated/total p53, Sirt1 and activated caspase-3 to assess apoptosis by Western blotting. (B) CSP inhibits IL-17A-induced p53 and PAI-1 expression and apoptosis in A2ECs in vitro. A2ECs isolated from WT mice were treated with PBS or IL-17A (100 ng/ml) in the presence or absence of CSP or control peptide, CP for 24 h in culture dishes. A2EC lysates were immunoblotted for p53, PAI-1, Cl./total caspase-3 and β-actin. WT mice exposed to IL-17A (FIG. 48D) and PTS (FIG. 46A) induce p53 acetylation and Cav1 expression, while inhibiting Sirt1 in A2ECs.
FIGS. 58A-58B show a 7-amino acid fragment of CSP, CSP7 Inhibits IL-17A-induced A2EC apoptosis. (A) Fragments of CSP were synthesized as shown. (B) A2ECs were treated with CSP or its fragments, or CP, 2 h after exposure of cells to IL-17A. A2EC lysates were immunoblotted for acetylated/total p53 and active/total caspase-3 24 h after IL-17A exposure. β-actin levels were evaluated to assess equal loading.
Increased p53 and apoptosis in A2ECs of mice exposed to PTS or IL-17A provided evidence that PTS acts by increasing IL-17A. To confirm that increased IL-17A contributes to the induction of p53 and PAI-1 expression, and apoptosis in A2ECs during PTS-induced lung injury, IL-17A-deficient mice were exposed to 20 weeks of PTS and control mice were kept in ambient air. A2ECs were tested for p53^AC, p53 and Sirt1 expression, and apoptosis. The responses were compared with changes in A2ECs isolated from WT mice exposed to 20 weeks of PTS or AIR. There was marked induction of p53^AC and p53 levels, and apoptosis with parallel suppression of Sirt1 expression in WT mice exposed to 20 weeks of PTS. […] To confirm mitigation of PTS induced lung injury by CSP or CSP7 involves suppression of IL-17A-induced p53, PAI-1 and apoptosis, A2ECs isolated from WT mice were next treated with IL-17A (100 ng/ml) with or without CSP, CSP7 or CP. Control cells were treated with vehicle (PBS) alone. The A2EC lysates were tested for p53 and p53-mediated downstream induction of PAI-1, and apoptosis. […] Further, induction of miR-34a increased p53 and apoptosis in A2ECs without exposure to tobacco smoke, while inhibition of miR-34a using miR-34a antisense (miR-34a-AS) reduced cigarette smoke induced p53 expression and apoptosis. Results of both in vitro and in vivo experiments support an intricate link between miR-34a, p53^AC, p53 and p53-mediated induction of PAI-1 expression, and A2EC apoptosis during PTS lung injury.

[2] = system: ATII cells and BALF of IL-17A treated mice; assay: IL-17A-induced lung injury in mice; assay type: in vivo, mouse; details: WT mice exposed to recombinant IL-17A, 24 h
Procedure: IL-17A is induced in passive tobacco smoke (PTS) exposed lung injury. […] Further, IL-17A induced ^p15Sp53 was inhibited following treatment of mice CSP7 when compared with those treated with saline and control peptide. To further test whether IL-17A induced ^p15Sp53 alters PAI-1 expression and ATII apoptosis, ATII cells of IL-17A treated mice for PAI-1 and apoptotic markers were analyzed. IL-17A induced the expression of PAI-1 and cl.Cas-3, and inhibited Sirt-1 expression in ATII cells. […] In addition, CSP7 treatment found to inhibit serine phosphorylation of p53 by neutralizing elevated IL-17A due to PTS exposure.
To test the importance of miR-34a mediated deacetylation of p53 IL-17A or PTS induced lung injury, miR34a conditional knockout mice were treated with tamoxifen. miR34a conditional knockout mice treated with IL-17A (3 μg/mice) was administered with CSP7 and CP a day later. ATII cells isolated from these mice were screened for PAI-1, Sirt-1 and apoptotic markers. […] Further, CSP7 treatment had little effect in miR-34a^cKo mice since these mice resist IL-17A or PTS injury.

BAL cells = assay: BAL cell counts in mice treated with IL-17A or Pre-miR-34a; assay type: in vivo, mouse

Q: Which “BLM-induced apoptosis of LECs and subsequent pulmonary fibrosis” value (LECs) does the source give for “NYHYLESSMTALYTLGH (listed as Homo sapiens) [PP-2, 17 residue peptide]” here?
A: protected LECs from BLM-induced apoptosis in vitro and in vivo

B1: IL-17A: recombinant interleukin 17A used to induce A2C injury in vitro and in mice (protein, UniProt Q62386 26-158, looked up)
Interleukin-17A: AAIIPQSSACPNTEAKDFLQNVKVNLKVFNSLGAKVSSRRPSDYLNRSTSPWTLHRNEDPDRYPSVIWEAQCRHQRCVNAEGKLDHHMNSVLIQQEILVLKREPESCPFTFRVEKMLVGVGCTCVASIVRQAA
Q: With B1 as the molecule, how does the “PAI-1 expression or apoptosis” value ([1]; A2ECs lacking p53 expression) read?
A: failed to induce PAI-1 expression or apoptosis

Q: And the “p53 and PAI-1 expression and apoptosis” value ([1]; mouse and human A2ECs, IL-17A alone)?
A: induced expression of both p53 and PAI-1, and also apoptosis

Q: And the “total and acetylated p53, apoptosis and Cav1 expression in A2ECs” value [2]?
A: marked increase in total and acetylated p53, apoptosis and induced Cav1 expression

Q: What about the “percentage of PMN in total BAL cells” value (BAL cells) of the same molecule?
A: 11.27%

Q: What about the “total BAL cells” value (BAL cells) of the same molecule?
A: two-fold increase
